Target: the molecule itself
Test: FRET or BRET

B1: full-length FGFR3 C228R mutant (CHO) (receptor)
chain: ESLGTEQRVVGRAAEVPGPEPGQQEQLVFGSGDAVELSCPPPGGGPMGPTVWVKDGTGLVPSERVLVGPQRLQVLNASHEDSGAYSCRQRLTQRVLCHFSVRVTDAPSSGDDEDGEDEAEDTGVDTGAPYWTRPERMDKKLLAVPAANTVRFRCPAAGNPTPSISWLKNGREFRGEHRIGGIKLRHQQWSLVMESVVPSDRGNYTRVVENKFGSIRQTYTLDVLERSPHRPILQAGLPANQTAVLGSDVEFHCKVYSDAQPHIQWLKHVEVNGSKVGPDGTPYVTVLKTAGANTTDKELEVLSLHNVTFEDAGEYTCLAGNSIGFSHHSAWLVVLPAEEELVEADEAGSVYAGILSYGVGFFLFILVVAAVTLCRLRSPPKKGLGSPTVHKISRFPLKRQVSLESNASMSSNTPLVRIARLSSGEGPTLANVSELELPADPKWELSRARLTLGKPLGEGCFGQVVMAEAIGIDKDRAAKPVTVAVKMLKDDATDKDLSDLVSEMEMMKMIGKHKNIINLLGACTQGGPLYVLVEYAAKGNLREFLRARRPPGLDYSFDTCKPPEEQLTFKDLVSCAYQVARGMEYLASQKCIHRDLAARNVLVTEDNVMKIADFGLARDVHNLDYYKKTTNGRLPVKWMAPEALFDRVYTHQSDVWSFGVLLWEIFTLGGSPYPGIPVEELFKLLKEGHRMDKPANCTHDLYMIMRECWHAAPSQRPTFKQLVEDLDRVLTVTSTDEYLDLSAPFEQYSPGGQDTPSSSSSGDDSVFAHDLLPPAPPSSGGSRT
- stoichiometry N: 2
